Assay results: patent US20250339564A1 (ACADEMISCH ZIEKENHUIS LEIDEN H O D N LUMC, published 2025)

Target: T1, Epithelial Cell Adhesion Molecule (EpCAM) (human, UniProt P16422 24-314)
T1 construct: whole, on cells; Target is endogenous EpCAM in patient tumor tissue: in vivo targeting for m1, FFPE sections for the IHC antibodies
T1 sequence (looked up): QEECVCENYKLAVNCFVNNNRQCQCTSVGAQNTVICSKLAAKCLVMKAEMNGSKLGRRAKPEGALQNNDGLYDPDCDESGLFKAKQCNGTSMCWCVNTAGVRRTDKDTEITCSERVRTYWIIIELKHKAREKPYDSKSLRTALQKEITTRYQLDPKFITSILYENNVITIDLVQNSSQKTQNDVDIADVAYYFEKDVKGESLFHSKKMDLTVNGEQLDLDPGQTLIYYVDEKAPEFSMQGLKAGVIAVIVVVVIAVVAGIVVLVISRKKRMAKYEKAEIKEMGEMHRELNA
Assay: NIR fluorescence microscopy (Axio scan) of metastatic lymph node sections after IV dosing, overlaid with EpCAM IHC

B1: VB5-845D-800CW (Fab, V domains shown)
VH: EVQLQQSGPGLVQPGGSVRISCAASGYTFTAYGMNWVRQAPGKGLEWMGWINTYTGESTYADSFKGRFEFSLDTHNSSAYLQIQSLREEDTAVYYCARFAIQGDYWGQGTLVTVSS
VL: DIQMTQSPSSLSASVGDRVTITCKSTKSLLHSNGITYLYWYQQKPGSAPKLLIYQMSHLASGVPSRFSSSGSGTDFTLTISSLQPEDFATYYCAQNLEIPRTFGQGTKVEIKR
modifications: IRDye 800CW conjugated by N-hydroxysuccinimide ester chemistry to primary amines (sites and chain not stated)
binding result: binds
